In paper PMC10693595 (2023) one finds screen value and percent of parent data, which are given here for 6 variants.

B1: human VZV neutralizing mAb 93k [modified: Cy5-conjugated] [human] / VZV glycoprotein B, wild type [varicella-zoster virus (VZV)] (parent complex)
chain 1: QVQLVQSGAEVKKPGSSVKVSCKASGGTFSNFAISWVRQAPGQGLEWMGRIMPLFVTSTYAQKFQGRVTISADASTSTAYMELSSLRSDDTAMYYCARDITAPGAAPTPLNFYGMDVWGQGTTVTVSS
chain 2: DIQMTQSPSTLSASVGDRVTITCRASQTISTWLAWYQQTPRKAPKLMIYKASILENGVPSRFSGSGSGTEFTLTISSLQPEDFATYYCQQYKSYPWTFGQGTKVEI
chain 3: VSPSSFYESLQVEPTQSEDITRSAHLGDGDEIREAIHKSQDAETKPTFYVCPPPTGSTIVRLEPTRTCPDYHLGKNFTEGIAVVYKENIAAYKFKATVYYKDVIVSTAWAGSSYTQITNRYADRVPIPVSEITDTIDKFGKCSSKATYVRNNHKVEAFNEDKNPQDMPLIASKYNSVGSKAWHTTNDTYMVAGTPGTYRTGTSVNCIIEEVEARSIFPYDSFGLSTGDIIYMSPFFGLRDGAYREHSNYAMDRFHQFEGYRQRDLDTRALLEPAARNFLVTPHLTVGWNWKPKRTEVCSLVKWREVEDVVRDEYAHNFRFTMKTLSTTFISETNEFNLNQIHLSQCVKEEARAIINRIYTTRYNSSHVRTGDIQTYLARGGFVVVFQPLLSNSLARLYLQELVRENTNHSPQKHPTRNTRSRRSVPVELRANRTITTTSSVEFAMLQFTYDHIQEHVNEMLARISSSWCQLQNRERALWSGLFPINPSALASTILDQRVKARILGDVISVSNCPELGSDTRIILQNSMRVSGSTTRCYSRPLISIVSLNGSGTVEGQLGTDNELIMSRDLLEPCVANHKRYFLFGHHYVYYEDYRYVREIAVHDVGMISTYVDLNLTLLKDREFMPLQVYTRDELRDTGLLDYSEIQRRNQMHSLRFYDIDKVVQYDSGTAIMQGMAQFFQGLGTAGQAVGHVVLGATGALLSTVHGFTTFLSNPFGALAVGLLVLAGLVAAFFAYRYVLKLKTSPMKALYPLTTKGLKQLPEGMDPFAEKPNATDTPIEEIGDSQNTEPSVNSGFDPDKFREAQEMIKYMTLVSAAERQESKARKKNKTSALLTSRLTGLALRNRRGYSRVRTENVTGV

Variants of B1 are the subject of one test. In words: flow cytometry on cells; CHO-DSP1 cells transfected, permeabilized, immunostained with Cy5-conjugated mAb 93k; n = 3; parent: 100; read off a plot.
On to chain 3 H456P, for which the screen value was around 120 % WT.
Still for that read-out and setting: with chain 3 V457P the figure was around 48 % WT.
The same measure, in the same setting: with chain 3 E455P the figure was around 110 % WT.

Variants of B1 are the subject of another test. The test is described as above. This is another data set of the same source.
As to chain 3 H456P, the percent of parent was around 95 % WT.
Take chain 3 V457P: the percent of parent was around 18 % WT.
On the same count and under the same terms, with chain 3 E455P the figure was around 70 % WT.

A further test covers variants of B1. Nature of the test: flow cytometry on cells; CHO-DSP1 cells transfected, permeabilized, immunostained with Cy5-conjugated mAb 93k; n = 2; parent: 100; read off a plot.
As to chain 3 H456A, the percent of parent is around 98 % WT.
Turning to chain 3 V457A, the percent of parent was around 98 % WT.
For the variant chain 3 E455A, the percent of parent was around 110 % WT.

Variants of B1 are the subject of a further test. The description is as above. This is another data set of the same source.
Turning to chain 3 H456A, the screen value is around 120 % WT.
Take chain 3 V457A: the screen value was around 120 % WT.
Take chain 3 E455A: the screen value was around 120 % WT.
